Test results as given in paper PMC9158529, “AfCHIL, a Type IV Chalcone Isomerase, Enhances the Biosynthesis of Naringenin in Metabolic Engineering” (Frontiers in Plant Science, 2022).

Legend:
[1] = biological target: AfCHS, chalcone synthase of Allium fistulosum (yeast two-hybrid fusion) (Allium fistulosum)
[2] = biological target: AfCHS, chalcone synthase of Allium fistulosum (yeast two-hybrid fusion) (Allium fistulosum); remark: listed apart in the source
AfCHS/AfCHIL = test system: T1, AfCHS/AfCHIL; assay: HPLC at […] nm, Michaelis-Menten fit; type: biochemical, Allium fistulosum; conditions: AfCHIL present; 200 uM malonyl-CoA, 20-200 uM p-coumaroyl-CoA
T1 construct: gene CHS; complete ORFs in pET-15b, His6-tagged, E. coli BL21 (DE3), combined in the assay; legend calls it AfCHIL/AfCHS1; with Chalcone isomerase-like protein (type IV chalcone isomerase)

AfCHS = test system: T2, AfCHS; assay: HPLC at […] nm, Michaelis-Menten fit; type: biochemical, Allium fistulosum; conditions: 200 uM malonyl-CoA, 20-200 uM p-coumaroyl-CoA, HEPES-KOH pH 7.0, 2 mM DTT, 35 °C, 30 min
T2 construct: gene CHS; complete ORF in pET-15b, His6-tagged, E. coli BL21 (DE3), His-tag purified

Compound	Kcat of purified His6-AfCHS (p-coumaroyl-CoA and malonyl-CoA as substrates) in the presence of purified His6-AfCHIL, against AfCHS alone [1] [times]	by-product CTAL produced by purified AfCHS in vitro with AfCHIL present, against AfCHS alone [2] [% decrease]	naringenin produced by purified AfCHS in vitro with AfCHIL present, against AfCHS alone [2] [times]	Km (AfCHS/AfCHIL) [µM]	Km (AfCHS) [µM]
AfCHIL, type IV chalcone isomerase of Allium fistulosum (yeast two-hybrid fusion) (natural protein)	2.7	30	2.2		
CC(C)(COP(=O)(O)OP(=O)(O)OC[C@H]1O[C@@H](n2cnc3c(N)ncnc32)[C@H](O)[C@@H]1OP(=O)(O)O)[C@@H](O)C(=O)NCCC(=O)NCCSC(=O)/C=C/c1ccc(O)cc1 [p-coumaroyl-CoA]				53.9 ± 10	55.1 ± 12.5
